Article PMC9458440, “Cryo-EM structure of the Smc5/6 holo-complex” (Nucleic Acids Research, 2022)

Assays:
Test in all cases: cryo-EM structure; BS3-crosslinked six-subunit holo-complex, apo / non-liganded; fractions from Superose 6 diluted to 20 mM HEPES.NaOH pH 7.5, 50 mM NaCl, 0.5 mM TCEP, 0.1 mg/ml; maps at 10.8 Å (holo-complex), 8.53 Å (hinge/arm) and 6.5 Å (head-only); pseudo-atomic model built from homology and AlphaFold models
Conditions in all cases: both partners purified
[1] = molecular target: T1, Smc5 (Walker B mutant E1015Q), subunit of the S. cerevisiae Smc5/6 holo-complex (S. cerevisiae, UniProt Q08204 1-1093, E1015Q)
T1 construct: Smc5, Saccharomyces cerevisiae; the model holds amino acids 35-390, 394-882, 884-1068; The complex was crosslinked with BS3; also called κ-SMC; source: recombinant, expressed in insect cells, purified as holo-complex (Superose 6 SEC), BS3-crosslinked
T1 sequence: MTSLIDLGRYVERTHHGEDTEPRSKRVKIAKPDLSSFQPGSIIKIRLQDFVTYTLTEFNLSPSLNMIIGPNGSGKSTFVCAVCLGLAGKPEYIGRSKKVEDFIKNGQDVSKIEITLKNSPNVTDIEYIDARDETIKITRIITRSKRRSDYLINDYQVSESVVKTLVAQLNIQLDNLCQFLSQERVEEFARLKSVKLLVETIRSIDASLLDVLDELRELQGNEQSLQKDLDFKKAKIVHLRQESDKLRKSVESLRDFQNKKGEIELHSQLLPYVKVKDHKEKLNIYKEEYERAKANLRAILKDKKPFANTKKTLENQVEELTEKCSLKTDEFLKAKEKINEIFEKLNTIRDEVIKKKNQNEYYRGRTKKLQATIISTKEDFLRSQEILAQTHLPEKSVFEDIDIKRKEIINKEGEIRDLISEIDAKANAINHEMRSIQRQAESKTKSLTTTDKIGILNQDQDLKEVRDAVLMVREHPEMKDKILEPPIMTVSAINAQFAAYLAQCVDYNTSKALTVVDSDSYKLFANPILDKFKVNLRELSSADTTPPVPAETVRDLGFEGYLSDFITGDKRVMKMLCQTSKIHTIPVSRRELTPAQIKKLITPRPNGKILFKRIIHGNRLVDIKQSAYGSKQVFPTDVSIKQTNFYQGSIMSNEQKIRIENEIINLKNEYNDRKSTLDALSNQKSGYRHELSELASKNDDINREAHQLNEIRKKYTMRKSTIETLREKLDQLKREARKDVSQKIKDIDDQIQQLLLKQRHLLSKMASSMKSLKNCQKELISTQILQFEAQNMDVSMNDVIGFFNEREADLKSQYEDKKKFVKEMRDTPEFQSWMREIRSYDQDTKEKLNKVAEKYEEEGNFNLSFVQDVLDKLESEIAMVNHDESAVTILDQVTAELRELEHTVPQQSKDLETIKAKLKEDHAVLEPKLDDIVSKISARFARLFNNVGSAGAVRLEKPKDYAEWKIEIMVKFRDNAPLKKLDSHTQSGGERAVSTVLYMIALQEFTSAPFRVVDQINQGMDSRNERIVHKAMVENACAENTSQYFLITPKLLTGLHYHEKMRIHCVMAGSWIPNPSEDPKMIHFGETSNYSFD

[2] = molecular target: T2, Nse1, subunit of the S. cerevisiae Smc5/6 holo-complex (S. cerevisiae, UniProt Q07913 1-336)
T2 construct: Nse1, Saccharomyces cerevisiae; the model holds amino acids 11-336; also called KITE subunit; source: recombinant, expressed in insect cells, purified as holo-complex (Superose 6 SEC), BS3-crosslinked
T2 sequence: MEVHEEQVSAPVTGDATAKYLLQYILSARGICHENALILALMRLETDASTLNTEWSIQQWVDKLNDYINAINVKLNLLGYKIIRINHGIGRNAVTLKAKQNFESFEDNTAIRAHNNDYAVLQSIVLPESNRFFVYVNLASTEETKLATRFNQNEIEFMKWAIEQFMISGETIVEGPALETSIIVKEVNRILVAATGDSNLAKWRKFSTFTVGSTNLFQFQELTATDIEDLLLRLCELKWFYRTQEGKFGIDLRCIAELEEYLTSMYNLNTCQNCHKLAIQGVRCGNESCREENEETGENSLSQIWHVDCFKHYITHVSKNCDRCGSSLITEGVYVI

[3] = molecular target: T3, Nse4 with HaloTag, kleisin subunit of the S. cerevisiae Smc5/6 holo-complex (S. cerevisiae, UniProt P43124 1-402)
T3 construct: Nse4, Saccharomyces cerevisiae; the model holds amino acids 40-124, 184-202, 213-245, 283-402; Density of the HaloTag attached to Nse4 was removed by particle subtraction, so the tag was on the protein on the grid; its end is told only for the yeast strain (C-terminal), not for the recombinant protein; source: recombinant, expressed in insect cells, purified as holo-complex (Superose 6 SEC), …
T3 sequence: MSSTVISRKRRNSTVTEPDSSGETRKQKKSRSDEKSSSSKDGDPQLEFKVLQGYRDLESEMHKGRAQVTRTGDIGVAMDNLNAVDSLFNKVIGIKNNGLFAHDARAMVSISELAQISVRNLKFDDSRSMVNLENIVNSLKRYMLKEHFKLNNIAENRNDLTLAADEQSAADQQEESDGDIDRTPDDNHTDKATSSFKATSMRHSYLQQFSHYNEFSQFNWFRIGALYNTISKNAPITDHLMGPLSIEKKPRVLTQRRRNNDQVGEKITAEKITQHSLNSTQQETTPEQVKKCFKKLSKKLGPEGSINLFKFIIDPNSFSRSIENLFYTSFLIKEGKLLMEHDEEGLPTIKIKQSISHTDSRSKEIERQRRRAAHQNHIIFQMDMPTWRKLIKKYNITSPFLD

Measured: binding result

B1: Nse3, subunit of the S. cerevisiae Smc5/6 holo-complex (natural protein)
chain: MSSIDNDSDVDLTEDLAVAKIVKENPVARKMVRYILSRGESQNSIITRNKLQSVIHEAAREENIAKPSFSKMFMDINAILYNVYGFELQGLPSKNNMNAGGNGSNSNTNKSMPEPLGHRAQKFILLNNVPHSKNFDDFKILQSAHTYEELIVTGEYIGDDIASGTSNTLESKLSTDRDLVYKGVLSVILCIVFFSKNNILHQELIKFLETFGIPSDGSKIAILNITIEDLIKSLEKREYIVRLEEKSDTDGEVISYRIGRRTQAELGLESLEKLVQEIMGLEKEQTKSLHDDIIKSIGDSYSI
notes: Nse3, Saccharomyces cerevisiae; the model holds amino acids 9-99, 114-152, 173-303; also called KITE subunit; source: recombinant, expressed in insect cells, purified as holo-complex (Superose 6 SEC), BS3-crosslinked
binds: [1] | [2] | [3]
